This note sets out measurements from PMC12990809.

Common to all, as to assay: pulldown
Common to all, as to conditions: 20 nM protein, 1.5 uM RNA pool; 20 mM HEPES pH 7.8, 70 mM KCl, 10 mM NaCl, 10% glycerol, 2 mM DTT, 0.1 ug/uL BSA; 30 min, 4 C

Data set [1] has as its target T1, LmjF.24.1570 (Leishmania major) (UniProt Q4QAH4).
T1 sequence: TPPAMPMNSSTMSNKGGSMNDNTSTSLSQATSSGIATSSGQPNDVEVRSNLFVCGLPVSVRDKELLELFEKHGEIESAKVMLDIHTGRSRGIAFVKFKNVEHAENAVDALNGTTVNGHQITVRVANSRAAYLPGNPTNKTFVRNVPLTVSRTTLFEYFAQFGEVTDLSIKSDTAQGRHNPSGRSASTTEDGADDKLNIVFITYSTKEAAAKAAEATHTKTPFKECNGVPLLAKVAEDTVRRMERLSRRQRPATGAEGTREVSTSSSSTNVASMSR

In data set [2] the target is T2, NCU00707 (Neurospora crassa) (UniProt Q7SET9).
T2 sequence: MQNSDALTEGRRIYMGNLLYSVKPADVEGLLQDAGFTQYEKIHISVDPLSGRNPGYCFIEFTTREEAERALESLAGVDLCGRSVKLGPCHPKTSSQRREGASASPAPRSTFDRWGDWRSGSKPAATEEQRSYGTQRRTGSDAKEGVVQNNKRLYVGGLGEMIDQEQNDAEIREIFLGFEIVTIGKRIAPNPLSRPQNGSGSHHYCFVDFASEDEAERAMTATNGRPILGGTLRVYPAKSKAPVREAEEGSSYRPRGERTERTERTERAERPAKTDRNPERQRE

The target of data set [3] is T3, Tb11.03.0550 L37P (Trypanosoma brucei) (UniProt Q387J8).
T3 sequence: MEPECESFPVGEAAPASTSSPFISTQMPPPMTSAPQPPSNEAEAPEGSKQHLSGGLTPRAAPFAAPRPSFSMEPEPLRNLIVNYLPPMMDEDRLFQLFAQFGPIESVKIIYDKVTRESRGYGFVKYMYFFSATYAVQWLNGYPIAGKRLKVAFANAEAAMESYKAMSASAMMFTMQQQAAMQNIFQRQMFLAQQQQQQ

Data set [4] has as its target T4, NCU00556 (Neurospora crassa) (UniProt Q7SF93).
T4 sequence: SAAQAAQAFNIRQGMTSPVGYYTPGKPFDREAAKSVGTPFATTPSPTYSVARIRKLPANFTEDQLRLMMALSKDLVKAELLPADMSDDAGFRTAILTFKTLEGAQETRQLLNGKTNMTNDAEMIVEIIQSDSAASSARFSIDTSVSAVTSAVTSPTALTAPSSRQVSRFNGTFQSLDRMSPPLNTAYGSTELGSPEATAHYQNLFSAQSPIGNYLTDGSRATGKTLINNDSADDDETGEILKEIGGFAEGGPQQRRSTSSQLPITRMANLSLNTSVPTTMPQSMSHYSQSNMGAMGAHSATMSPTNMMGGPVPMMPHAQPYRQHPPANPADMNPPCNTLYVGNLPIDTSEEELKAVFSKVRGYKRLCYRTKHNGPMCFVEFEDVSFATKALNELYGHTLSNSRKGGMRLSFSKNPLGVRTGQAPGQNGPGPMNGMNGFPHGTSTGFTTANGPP

Data set [5] deals with T5, PK10695.1 (Cannabis sativa) (UniProt A0A803NZQ3).
T5 sequence: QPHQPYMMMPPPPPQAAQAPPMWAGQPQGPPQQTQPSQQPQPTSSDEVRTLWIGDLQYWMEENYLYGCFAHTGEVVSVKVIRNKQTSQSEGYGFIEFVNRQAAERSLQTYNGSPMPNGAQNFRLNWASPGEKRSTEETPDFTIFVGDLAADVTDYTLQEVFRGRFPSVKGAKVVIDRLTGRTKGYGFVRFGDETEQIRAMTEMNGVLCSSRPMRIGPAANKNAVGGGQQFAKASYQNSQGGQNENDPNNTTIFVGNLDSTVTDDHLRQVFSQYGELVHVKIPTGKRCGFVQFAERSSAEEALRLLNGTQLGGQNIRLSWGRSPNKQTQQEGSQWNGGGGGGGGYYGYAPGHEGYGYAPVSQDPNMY

Data set [6] has as its target T6, Tb10.389.1650 (Trypanosoma brucei) (UniProt Q389D4).
T6 sequence: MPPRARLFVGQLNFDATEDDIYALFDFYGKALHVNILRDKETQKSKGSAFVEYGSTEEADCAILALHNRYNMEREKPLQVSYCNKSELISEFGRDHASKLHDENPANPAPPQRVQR

Data set [7] deals with T7, Tb927.7.320 T9S (Trypanosoma brucei) (UniProt Q57U22).
T7 sequence: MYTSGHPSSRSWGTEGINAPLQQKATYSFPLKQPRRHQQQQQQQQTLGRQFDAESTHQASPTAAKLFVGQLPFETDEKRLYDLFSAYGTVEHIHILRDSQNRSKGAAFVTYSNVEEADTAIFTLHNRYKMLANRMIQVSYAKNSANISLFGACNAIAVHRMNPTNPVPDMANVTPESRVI

In data set [8] the test system is T8, ENSMODG00000011903 (Monodelphis domestica).
T8 sequence: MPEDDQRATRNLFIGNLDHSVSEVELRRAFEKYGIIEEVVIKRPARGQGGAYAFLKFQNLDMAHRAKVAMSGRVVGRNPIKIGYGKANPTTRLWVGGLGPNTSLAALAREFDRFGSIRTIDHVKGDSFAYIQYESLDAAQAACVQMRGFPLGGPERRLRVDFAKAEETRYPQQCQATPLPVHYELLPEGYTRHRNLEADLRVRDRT

Data set [9] has as its target T9, ENSGALG00000014089 (Gallus gallus) (UniProt A0A8V0XZS6).
T9 sequence: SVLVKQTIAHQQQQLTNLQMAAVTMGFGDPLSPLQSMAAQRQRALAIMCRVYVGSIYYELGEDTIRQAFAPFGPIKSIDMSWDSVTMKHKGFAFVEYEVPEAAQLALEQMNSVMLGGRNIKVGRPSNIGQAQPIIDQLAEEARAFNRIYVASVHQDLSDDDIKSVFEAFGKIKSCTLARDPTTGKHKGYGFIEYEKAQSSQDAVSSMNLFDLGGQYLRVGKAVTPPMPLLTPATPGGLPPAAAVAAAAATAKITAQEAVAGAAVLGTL

In the case of UAUACU [RNAcompete motif RNCMPT00761], in data set [1], the binding signal (z-score (mean of top ten 7-mers)) was determined as 22.5.

On to UUAUGA [RNAcompete motif RNCMPT00768], for which the binding signal (z-score (mean of top ten 7-mers)) in data set [2] was 7.83. In [3], UUAUUUU [RNAcompete motif RNCMPT00749] showed a binding signal (z-score (mean of top ten 7-mers)) of 13.9. In data set [4], UUGCAU [RNAcompete motif RNCMPT00754] had a binding signal (z-score (mean of top ten 7-mers)) of 14.3. Take UUUAUUUU [RNAcompete motif RNCMPT00741]: the binding signal (z-score (mean of top ten 7-mers)) in [5] was determined as 10.2.

Sequence UUUGCU [RNAcompete motif RNCMPT00732] returned a binding signal (z-score (mean of top ten 7-mers)) in data set [6] of 18.9.

As for UUUGCUU [RNAcompete motif RNCMPT00751], in [7], the binding signal (z-score (mean of top ten 7-mers)) stood at 12.5. Take UUUUUUG [RNAcompete motif RNCMPT00758]: in data set [8], the binding signal (z-score (mean of top ten 7-mers)) amounted to 7.84. Take UUUUUUU [RNAcompete motif RNCMPT00760]: the binding signal (z-score (mean of top ten 7-mers)) in data set [9] amounted to 11.4.
